Molecular target: T1, Xanthomonas campestris pv. campestris (Xcc) LolB, periplasmic variant (Xanthomonas campestris pv. campestris …)
T1 chain: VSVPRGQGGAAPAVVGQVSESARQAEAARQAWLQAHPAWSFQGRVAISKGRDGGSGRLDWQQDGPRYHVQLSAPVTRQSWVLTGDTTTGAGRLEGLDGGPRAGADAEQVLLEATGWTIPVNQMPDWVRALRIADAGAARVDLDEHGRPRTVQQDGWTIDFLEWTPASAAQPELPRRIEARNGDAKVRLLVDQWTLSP
Experiment: ITC; LolA 1 mM in the syringe, LolB 0.1 (unit inferred) in the cell; 25.0 °C; 20 mM TRIS-HCl pH 7.8, 150 mM NaCl, 5% glycerol; 1:1 binding model; triplicate
Settings: both partners purified

B1: Xanthomonas campestris pv. campestris (Xcc) LolA (natural protein)
chain: GARQELDTFTRGLKGLDGQFSQRVTDANGRVKENSSGRVALATPRQFRWEYAKPYKQLIVADGKKVWVFDPDLEQVTVRAQGSEEQNSPLVALIDPTRLDKQYDVSEEAAPRDGLQWLSLTPKVDTDASFQMASLGFGKDGLAKMEVVDAVGQRTAISFSGWKRNPAFAADTFRYTPGKGVDVVGDAQ
Kd: 14.6 ± 1 µM | dH: -1.63 ± 0.03 kcal/mol | stoichiometry N: 0.96 ± 0.04

Reference: paper PMC10368991, “LolA and LolB from the plant-pathogen Xanthomonas campestris forms a stable heterodimeric complex in the absence of lipoprotein” (Frontiers in Microbiology, 2023)
